Molecular target: axonemes (purified from sea urchin sperm flagella) (sea urchin)
Assay: single-molecule fluorescence microscopy

Work on “DNA-kinesin monomer K336 333C_10 bp (from UniProt P33176 1-336)” yielded a dwell time of 170 ms.

From article PMC2775897
